Experimental data: PMC7683346

Molecular target: FFAR4-NanoLuc (UniProt Q5NUL3)
Test: FRET or BRET

UniProt Q5NUL3, sequence (Q5NUL3 whole entry): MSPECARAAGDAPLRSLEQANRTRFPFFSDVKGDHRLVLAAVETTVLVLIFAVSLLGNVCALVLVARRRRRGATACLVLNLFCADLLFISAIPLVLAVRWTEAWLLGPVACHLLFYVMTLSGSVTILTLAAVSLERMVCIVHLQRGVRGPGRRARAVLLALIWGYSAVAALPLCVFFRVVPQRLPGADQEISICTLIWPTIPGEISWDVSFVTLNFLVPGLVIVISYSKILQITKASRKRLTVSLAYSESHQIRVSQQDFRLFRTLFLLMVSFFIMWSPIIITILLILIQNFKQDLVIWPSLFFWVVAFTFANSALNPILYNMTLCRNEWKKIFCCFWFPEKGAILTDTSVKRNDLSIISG

Substance | fold BRET signal against mini-Gαq
Venus-tagged mini-Gαi | 3 fold
Venus-tagged mini-Gαo | 3 fold
